Measurements from patent US20170212131A1 (NEW YORK UNIVERSITY, published 2017).

B1: antibody 6B2G12 (antibody, V domains shown)
VH: EVQLQQSGPELVKPGASVKISCKTSEYTFTEYTKHWVKQSHGKSLEWIGSINPNNGDTYYNQKFTDKATLTVDKSSTTASMELRSLTFEDSAVYYCAMGDSAWFAYWGQGTLVTVS
VL: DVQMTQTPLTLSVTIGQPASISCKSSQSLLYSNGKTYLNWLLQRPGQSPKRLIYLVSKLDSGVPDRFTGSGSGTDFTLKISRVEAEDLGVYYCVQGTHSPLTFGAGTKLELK
notes: Monoclonal antibody from hybridoma clone 6B2G12, whole antibody (about 150 kDa); also called parent antibody; parental antibody
B2: scFv235 (scFv, not shown: small tags and cut ends)
scFv: ELDVVMTQTPLTLSVTIGQPASISCKSSQSLLYSNGKTYLNWLLQRPGQSPKRLIYLVSKLDSGVPDRFTGSGSGTDFTLKISRVEAEDLGVYYCVQGTHSPLTFGAGTKLELKSSGGGGSGGGGGGSSRSSLEVQLQQSGPELVKPGASVKISCKTSEYTFTEYTKHWVKQSHGKSLEWIGSINPNNGDTYYNQKFTDKATLTVDKSSTTASMELRSLTFEDSAVYYCAMGDSAWFAYWGQGTLVTVSA
notes: Made in E. coli from the phage display library of hybridoma 6B2G12; also called the scFv; His-tagged scFv235

Tests used:
[1] = target: T1, Tau-phospho-serine 396/404 peptide; experiment: SPR (Biacore 2000), antibody immobilized, peptide as analyte
T1 construct: Synthetic 30-residue peptide (Keck Foundation, Yale University) used for panning, ELISA and Biacore
Experimental: (§1) Briefly, scFv235/antibody (10 μg/ml) was diluted in 10 mM sodium acetate, pH 5.0, and was immobilized on a separate CMS sensor chip with an amine coupling kit (7 min contact time at 5 μl/min flow rate). Unreacted surface-bound material was blocked with ethanolamine. One channel of each sensor chip, prepared in the same way without scFv235 or antibody, was used to monitor the nonspecific binding of the peptide. All measurements were done with HBS-EP buffer (10 mM HEPES at pH 7.4, 150 mM NaCl, 3.4 mM EDTA and 0.005% surfactant P20) at flow rate of 5 μl/min at 25° C. After each measurement, the chip surface was regenerated with 10 μl of a buffer containing 500 mM NaCl and 0.1M glycine HCl, pH 8.0. […] Table 5 and Table 6 summarize the kinetics and specificity of binding of the 6B2G12 antibody and scFv235.

[2] = target: T1, Tau-phospho-serine 396/404 peptide; experiment: as above; remark: listed apart in the source
Experimental: as §1

[3] = target: T1, Tau-phospho-serine 396/404 peptide; experiment: SPR (Biacore 2000), scFv immobilized, peptide as analyte
Experimental: as §1

[4] = target: T1, Tau-phospho-serine 396/404 peptide; experiment: ratio of SPR KD values
[5] = target: T1, Tau-phospho-serine 396/404 peptide; experiment: ratio of association/dissociation from SPR
[6] = target: T1, Tau-phospho-serine 396/404 peptide; experiment: SPR (Biacore 2000), scFv immobilized, peptide as analyte; remark: listed apart in the source
Experimental: as §1

| Binder | Kd [1] [nM] | Kd [2] [nM] | koff [2] [s⁻¹] | kon [2] [M⁻¹ s⁻¹] | Kd [3] [nM] | koff [3] [s⁻¹] | kon [3] [M⁻¹ s⁻¹] | selectivity for the phosphorylated peptide (SEQ ID NO:28) relative to the non-phosphorylated peptide (SEQ ID NO:27) [4] [fold] | fold lower affinity than antibody 6B2G12 [5] [fold] | Kd [6] [nM] |
| --- | --- | --- | --- | --- | --- | --- | --- | --- | --- | --- |
| B1 | 0.395 | 0.395 | 0.00146 | 3.69e+06 |  |  |  |  |  |  |
| B2 |  |  |  |  | 994 | 0.0039 | 3930 | 3900 | ~2510 | 1040 |
